± gives the standard deviation of the averaged measurements.
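Note: ATP exposure 15 min at 22 °C before imaging.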

This data set deals with ATP. Put plainly: switch fluorescence ratio, 500 uM ATP over buffer (Cy3 cluster intensity, sum of 5 cycles each) (fold (ratio)); higher = stronger signal-on switching upon ATP binding; sequences stand for … in TCGTCGGCAGCGTCAGATGTGTATAAGAGACAGTTTTTTTTTTTTTTTTTTTTTTTTT…TC. As to conditions: aptamer strand: ATP DNA aptamer (quencher-CACCTGGGGGAGTATTGCGGAGGAAGG + anchor), 100 nM annealed; ATP concentration: 500 uM. In outline: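 Values give the fluorescence ratio for each switch-domain sequence, averaged from per-cluster ratios of summed target-cycle to summed buffer-cycle Cy3 intensity. The Cy3-labelled switching-strand clusters sat on a modified Illumina MiSeq flow-cell, were annealed to 100 nM quencher-labelled ATP aptamer, and were imaged in selection buffer, then after 15 min with 500 uM ATP at 22 °C. Five cycles ran with NaOH stripping and re-annealing between them, and clusters outside 100-1000 RFU were excluded.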
With GGGTGATCCT, the switch fluorescence ratio was 1.02 ± 0.073.
Then TAAGGCGGGC, with 0.988 ± 0.032; and CATACTAACG, with 1.33 ± 0.062.
Then GAATTTTGCG, with 0.999 ± 0.021; and TTTATCCGAC, with 1.15 ± 0.027; and GAGTCACGTC, with 0.9468 ± 0.0088.
Then TTGGTAATAG, with 1.03 ± 0.015; and AAGGTGTTTC, with 1.083 ± 0.0066; and ACAGTTGGGT, with 1.002 ± 0.0047.
Regarding TAGACGGGCT, the switch fluorescence ratio amounted to 0.9797 ± 0.0025.
Take TTAAATTGCG: the switch fluorescence ratio turned out to be 0.994 ± 0.027.
With CGCTGGATAG, the switch fluorescence ratio amounted to 1.08 ± 0.051.
Then AACTTTAGTG, with 0.991 ± 0.013; and CAAAAGGGAT, with 1.03 ± 0.017; and TCGGTGCCTG, with 1.01 ± 0.36.
Regarding CCGGGTCTTT, the switch fluorescence ratio turned out to be 1.002 ± 0.0064.
Then CCAAATAGGA, with 1.01 ± 0.013; and AGGGTTTAGC, with 1.02 ± 0.032.
With GGTATAATAC, the switch fluorescence ratio is 1.23 ± 0.041.
Regarding TATGTCGGTT, the switch fluorescence ratio came to 0.985 ± 0.033.
Consider TTCGGGCTGT, for which the switch fluorescence ratio was found to be 0.996 ± 0.011.
Then AGTCAGTGAC, with 1.009 ± 0.0026; and GACGTAGTTT, with 1.014 ± 0.0021; and CGTTGGCGAG, with 1.01 ± 0.031.
Then GTTGAGGGTT, with 0.989 ± 0.049; and ACGGACCATT, with 1.27 ± 0.014.
In the case of AATGTAGGGA, the switch fluorescence ratio came to 1.06 ± 0.051.
Then CGCGGGGCAC, with 1.062 ± 0.0025; and GCGGGCGTCG, with 0.994 ± 0.048.
Then GAGTCCTCTT, with 1.01 ± 0.032.
Then ATATGTAAAC, with 1 ± 0.047.
Take TACAGGGGCC: the switch fluorescence ratio amounted to 1 ± 0.022.
Then AGGTAATAGT, with 1.03 ± 0.028; and TATAGCCGAA, with 1 ± 0.083; and GAGTCATGCG, with 0.911 ± 0.093.
With AGTCTAGATA, the switch fluorescence ratio is 1.0302 ± 0.00084.
For the sequence TTAACTGCAC, the switch fluorescence ratio was determined as 1.44 ± 0.056.
Consider ACGAGTTCCT, for which the switch fluorescence ratio came out at 0.989 ± 0.056.
Then ACGGGAAAAG, with 1.01 ± 0.035; and TTCCTCCCCT, with 1.7 ± 0.82.
As for TTAAAAGGGA, the switch fluorescence ratio was 1.02 ± 0.07.
Take GGACTTGTCT: the switch fluorescence ratio amounted to 1.01 ± 0.053.
Then TTTATGCTTG, with 0.974 ± 0.044; and AACAGATCTG, with 1.02 ± 0.014; and ATTTGGCGTG, with 1.01 ± 0.099.
Then CCGTCAACTA, with 1.96 ± 0.22; and TTTCATATGA, with 1 ± 0.0082; and AAGGGCTTTT, with 1.01 ± 0.036.
Then TAGTTTGGAT, with 1.01 ± 0.026; and CGGGTTAGTG, with 0.992 ± 0.023; and GATTTTACTT, with 1.03 ± 0.015.
On to TGGTCGTATT, for which the switch fluorescence ratio stood at 0.9577 ± 0.0063.
Take TGCATCATTG: the switch fluorescence ratio came to 0.988 ± 0.039.
For the sequence TCTTTGTTG, the switch fluorescence ratio worked out at 1.02 ± 0.02.
For GATCCTGAGG, the switch fluorescence ratio was determined as 0.968 ± 0.077.
Consider GTGGTAGTTC, for which the switch fluorescence ratio was determined as 0.983 ± 0.015.
Take GATCACGTTG: the switch fluorescence ratio was 0.999 ± 0.022.
Then GCTCACCTAT, with 1.05 ± 0.048.
Then GTATTGTCAG, with 0.9663 ± 0.00064; and TTTAAAATGG, with 0.9998 ± 0.0073.
In the case of CGATTAAGGT, the switch fluorescence ratio came to 1.02 ± 0.043.
For GGGTGTACAA, the switch fluorescence ratio amounted to 0.98 ± 0.019.
Regarding TTTAAGGGGG, the switch fluorescence ratio was 1.15 ± 0.28.
Consider GGCAAAAATT, for which the switch fluorescence ratio was found to be 1.01 ± 0.017.
Consider TGTGTAAGAG, for which the switch fluorescence ratio turned out to be 0.9867 ± 0.0063.
Then TTTATGAGCA, with 0.998 ± 0.035.

The values are drawn from the supplement of paper PMC10126150.
